Experimental data reported in a protein production outcome set (Wang et al. 2014).

Experiment: label from the status in PepcDB records

Row | Sequence | protein production
1 | MWKHVKQVDPEIYEVLVNELKRQEYGLELIASENFASLAVIETMGSMLTNKYAEGYPKKRYYGGCEWVDRAEERAIERAKRLFGAKFANVQPHSGSQANMAVYLALAQPGDTIMGMSLSHGGHLTHGAPVNFSGKIFKVVPYGVNLETETIDYDEVRRLALEHKPKIIVAGGSAYARIIDFKRFREIADEVGAYLMVDMAHFAGLVAAGIHPNPLEYAHVVTSTTHKTLRGPRGGLILTNDPEIAKAVDKTIFPGIQGGPLMHVIAAKAVCFKEAMTEEFKEYQKQVVKNAKKMAEEFQKRGYRIVSGGTDTHLFLVDLTPKDITGKAAEKALESCGITVNKNTIPNEKRSPFVASGIRIGTPAVTTRGMKEEEMEEIAEMIDLVLSNVIDENGTVKPEVREEVSKKVRELCERFPLYRDKIEGVEI | not failed
2 | MEVKMPFVVFVKRSVRFPGKHSYMIGGKSLLEIIVSKLSNIGKVYVFTKDKDIICNGCSIEFDTTNGIITDSVLAAIDKFGTFFAVAGDMPLIKPELVSKMLSQYKGSPLFPRHMDGMLEPLFGIYTEDLYNALKEYLDKGGESLHAFLLTQPLQYYDIGSDDEVNFININYKSDIEKYRDLLVQLLEHHHHHH | not failed
3 | MSLDFHGVFPYLVSPVDAEGRVRADVMGRLCDDLIQAGVHGLTPLGSTGEFAYLGTAQREAVVRATIEAAQRRVPVVAGVASTSVADAVAQAKLYEKLGADGILAILEAYFPLKDAQIESYFRAIADAVEIPVVIYTNPQFQRSDLTLDVIARLAEHPRIRYIKDASTNTGRLLSIINRCGDALQVFSASAHIPAAVMLIGGVGWMAGPACIAPRQSVALYELCKAQRWDEALMLQRKLWRVNEAFAKFNLAACIKAGLALQGYDVGDPIPPQAALTAEERKAVEKVLAEIAEGHHHHHH | not failed
4 | MVSSLFINPFSEDAREIVRKYGSLDTIDDTRDELLEIGRRTRGQNLADNSLLPASIAELAVKRLEWYLRRQRKDFNHRDYAYLMNPEIEEYDVLAFYILAQAAGAGFMKASREARLVVESAGAMVEDRLNVFGGEREEIMAEVLYELGSEGLRWTELADLLGSGKLKLTDLILKEGRVIIDRDEFITSFQDSIRDRSPDRLYDILVGLEVRETMISRMIMQRTEEYIGMVREMSSTVEVHPLILETAERIRETVEEIMSFTGGPVKSARPGKLVQEAFPPCIRGTLDGVRSGNRNDAIVLLLTSFISYARLYPSVFRDRTPMKVSDLDPDLRITLGEILPVIYDAADRCEPPLFEDDPQEKLNITAKLGFGVHDMPELENEGESKWYTPMSCEKIKIHLPDLCRPDKLCSSISNPLTYYNRKRWKLRSSGEKEELEHHHHHH | not failed
5 | MPKIHELSETLTNQIAAGEVIERPASVVKELVENSLDAGATRIRVDFVDAGLKQIVVQDNGTGIARDQVDLAFTRHATSKISNEHDLFKVATLGFRGEALASISAVSHVEILTATKGAIGVKATFSGGNKKGQEDAAAREGTQITVRDLFFNTPARLKYLRSPRTEIMKIVDIINRLALGYPSVSFTLSNTGKVLLRTPGNGNLKQTVANVYGRHIAEKMEEFEAKDNDFKISGLMSKPELTRSTRNFVSILLNGRYIRNFQLNTAIMDGYGAKLAARHYPIIVLAIQVDPLLVDVNVHPTKQEVRLSKEKELSRLITSTISNVFIKKTEQTSAFANLENKRETLVDQLQFNLNQNVVNTARKKTPEIHENNEKPEFLAKPKKPEEEKTDYVDLNIPREDDKYIITKTWDKNVLLQQDLRPFSNTLCDSEVISSGDETLANNLPQLSYIGQIDTYIIAENNSDLFLIDQVAARRRLQFEKIYEMLLSKKIVQQGLLTPIVLEFGNLDFIQIKDKIDQIKQIGIYLEDFGQNSFIVRSYPTWIHNDVEETIRQILDGYLNLDKGKSENLFKRVAAMQAKRDISGKINLAAAEASQILIDLRKTEDPYHDADGRLVLVRMSENELKKMFKRDK | failed
6 | MVPYLDGEDVAGVQSRVRMYNADENLLTKMQDIEFALFGNLIMRSRMKMGVPAFLGGNGQLVKRRAVEEIGGWDGYAVTEDLNLSVKLMLRGYDVKFSSEAEVFQEAVGDWPAFFRQRTRWLIGNLETLFVYLAPLIDAPITLHRKLDSLFYLFSMLFIGFVMLGYVVFILNLAGFTLRMNAPFIIGIISTIAFFPLVITGIRRDGYSLPRTLILSIEYWAYCLYLLPLFIVAAVHMIRRRERRWAKTFHTG | failed
7 | MSAPLVYHHTPPALLPLYGKALLPKSGKNHPEAVQIPRLEASLLGVTTDIPALRDYMKVCNFQPGTRLPVTWPHILAFPLHLKLLTEPAFPLPLLGLVHLRNSITQHRPLAAGENLDLKVILDNQKRTDRGLEFDLVTEARASGRLIWEEVSTNLFRITNGPGKTSPKPKPELETYPFSEAIKAPENLGRQYAKVSGDRNPIHMHALSARAFGFPRAIAHGMWSKARALALLENQKGWKDGPVRASCQFKKPLLLPGNAMLNWQTGKDGWDFQLLNAKGDAPHLTGRIDWL | failed
8 | MDDSYMMVPMRRKRSQCDLAQMVQAIEEYDGSTQCEIDIDECASHPCKNGATCIDQPGNYFCQCVPPFKVFNFDGISSTSVQEFYHCEFGPCKASDSCENGAVRGEKMDLEMFPLEFRCQCASFSGPRCEINVNECSSSPCLHGYCYDMVDGFSCLCNPGYVGIRCEQDIDDCILNACEHNSTCKDLHLSYQCVCLSDWEGNFCEQESNECKMNPCKNNSTCTDLYKSYRCECTSGWTGQNCSEEINECDSDPCMNGGLCHESTIPGQFVCLCPPLYTGQFCHQRYNLCDLLHNPCRNNSTCLALVDANQHCICREEFEGKNCEIDVKDCLFLSCQDYGDCEDMVNNFRPGFSGSLCEIEINECSSEPCKNNGTCVDLTNRFFCNCEPEYHGPFCELDVNKCKISPCLDEENCVYRTDGYNCLCAPGYTGINCEINLDECLSEPCLHDGVCIDGINHYTCDCKSGFFGTHCETNANDCLSNPCLHGRCTELINEYPCSCDADGTSTQCKIKINDCTSIPCMNEGFCQKSAHGFTCICPRGYTGAYCEKSIDNCAEPELNSVICLNGGICVDGPGHTFDCRKACLYNCDNAKTRQESKELNKQQD | failed
9 | MLEGIYLALDKMFGPMLRNTHPMWVVTVSGVILGAFFVLLNYFLVDQEKMKRLQKMAKELQEEFKKARESGDEKKLRKLQQKQLELLRLQNELMKDAFLKPMLITWPIIIIFWGWLKRWYFETAIVKYPFNFFLFDIFHKMYHSALKPDELGYFGWYFLTSYVVGTILRKVLDMA | failed
10 | MKIIRTRQRPFMVIVDVVLTVLAWVGLLYLLVRGLIPLLDSHEGPRIEAGMLDALTTLQFYAWVAVLNAVLLISWARYRQRRNKSYPPRLPAPVVDDKRLSETFKLNDATFAQMRQPGTMIVHNDEEGGISHVTTQFYRILPEDQQHPPLRVEPPPRVIHLRSEGDEGKKTGED | failed
11 | MSLIDLYDLRMPQRTGTYVLHEENLAIIETGPSPSVPHLLAGLKALHIDPADIRYIIVTHIHLDHAGGVGVLLEHCPNATVIVHPKGKRHLADPSRLIAGAKAVYGEQFDALFDPIVPVPEERLLVKEDGETLVLSAERTLTFYDTPGHANHHFSIYDSYSGGVFTGDTIGVFYPQLQEAGLAFCLPSTSPNQFNPEAMKQSAERLEKLNPTRIYFGHFGALDQPEEAFRQLRFWLPKFVAAGKEVIARHPEAPAAEQAKAVTKLLHNDITAFLNECSIPASSPVYKVIELDLQVCAMGIIDYWRKQRLEHHHHHH | failed
12 | MLKLGVIGTGAISHHFIEAAHTSGEYQLVAIYSRKLETAATFASRYQNIQLFDQLEVFFKSSFDLVYIASPNSLHFAQAKAALSAGKHVILEKPAVSQPQEWFDLIQTAEKNNCFIFEAARNYHEKAFTTIKNFLADKQVLGADFNYAKYSSKMPDLLAGQTPNVFSDRFAGGALMDLGIYPLYAAVRLFGKANDATYHAQQLDNSIDLNGDGILFYPDYQVHIKAGKNITSNLPCEIYTTDGTLTLNTIEHIRSAIFTDHQGNQVQLPIQQAPHTMTEEVAAFAHMIQQPDLNLYQTWLYDAGSVHELLYTMRQTAGIRFEAEK | not failed
13 | MGRRFDHLGDVEAFIIVAEKGSMTEAAVALATTASVLSRAITRLETRLGAQLMRRTTRRLNLTDEGRAYLEQARAAFSMIDDAERAIQGPTGASLTGHVRISVPTTYGHHRLPAMLERFMQAYPEVQIELSITNRNVDLVAEGYDLAIRLGPLPDSGLVARKLEDASLRLVAAPHYLERAGMPQDVEDLAEHQCLPFVMPSTGRCAPWLFHVDGRDLDWTPPGRIQVFDDVLGVVSLAESGLGICQIYDFIIRDRVKEGRLVEVLDHAQGRFRPFSLIFAPHRRLSAATRTLIDFLVEK | failed
14 | MAKGDVITLNFETFVDSDTQVKVTRLTPTDVICHRNYFYQKCFTQDGKKLLFAGDFDGNRNYYLLNLETQQAVQLTEGKGDNTFGGFISTDERAFFYVKNELNLMKVDLETLEEQVIYTVDEEWKGYGTWVANSDCTKLVGIEILKRDWQPLTSWEKFAEFYHTNPTCRLIKVDIETGELEVIHQDTAWLGHPIYRPFDDSTVGFCHEGPHDLVDARMWLVNEDGSNVRKIKEHAEGESCTHEFWIPDGSAMAYVSYFKGQTDRVIYKANPETLENEEVMVMPPCSHLMSNFDGSLMVGDGCDAPVDVADADSYNIENDPFLYVLNTKAKSAQKLCKHSTSWDVLDGDRQITHPHPSFTPNDDGVLFTSDFEGVPAIYIADVPESYKHLEHHHHHH | not failed
15 | MKIRILGSGTSTGVPEIGCTCAVCTSKDPRDCRLRTSALVYTDDATILLDCGPDFREQMLRVPFGKIDAVLISHEHYDHVGGLDDLRPFCRFGEVPIYAETYTAERLRSRMPYCFVEHSYPGVPNIPLREIEPNRPFLVNHTEVLPLRVMHGKLPILGYRIGKLGYITDMLTMPDESFEQLQGIEVLVMNALRIAPHNTHQSLSEALEAVKRIGAKETWLIHMSHHIGLQADVEKQLPPHVHFAFDGLELECLEHHHHHH | failed
16 | MIRILICFSLITASLLITSIFANSALLFTEFIHSLVDLIPIAFAFYALRIIDRIDSKYTYGLHRLEIVSSLFNIFTVVAGSVFSVYISTVELIEGSRGDFLLVLISSSIALSLSLVASTDKSEEGRVSGSKLHAIQDSLAYILAVISSLLIIIMKIYFIDPVSAYILNGVLVITSLSPLKFSYNILMEKSPIDTKSVETELQSIFPQVHHIHVWSICDHLNVATLHVRENPDLTLRELDKKREYAEKVLREKFGITHVTIQFEANNKKERLEKI | failed
17 | MANLWIHALTVFMGFFAIMNPIANVPIFLSLTEGDDKKTTAMVASRALLLAFLIVTIFSVAGKLIFDLFGITLPAFQITGGLLVFLIGFHMLQGDQSSVQHPSETGKKKSPEAALSVTVSPLAMPILAGPGTIATAMNFSTGENFMEMAVTIVVFGVLCLITYVLFVSGEKFVTYIGASALGVITRMMGLILAVIGAQMVIAGIHGAFGLGAG | failed
18 | MELQLAIDLLNKEDAAELANKVKDYVDIVEIGTPIIYNEGLPAVKHMADNISNVKVLADMKIMDAADYEVSQAIKFGADVITILGVAEDASIKAAIEEAHKNNKQLLVDMIAVQDLEKRAKELDEMGADYIAVHTGYDLQAEGQSPLESLRTVKSVIKNSKVAVAGGIKPDTIKDIVAESPDLVIVGGGIANADDPVEAAKQCRAAIEGK | failed
19 | MNIPNLLTLFRFFLIPCFIFAFFSRSNDSLINSAIIFFIAGFTDILDGYIARKFNEITKYGTVMDPLADKLMLLTVLCCLTIKGYIPLLILLIMLAKEFSMIIIGVFLYGKNIIIPANIWGKLSTLIFYVAILFFTFSKFLGTYLLYIAILGAVVAYINYFLIFLSKYRQNATK | failed
20 | MDSLVASYASSDEEEDLQPRREAFTVKSSEPSASSLFSAIPQPKELKSSEDGDLGSSSSRGKSSSFLSSLPPPKSSISRKKNPNPSSIPKRVVQIRLPVNPRPSNLDDEDDEEEEKARKKRKQMESASASHDSSVRSFLSAMPAPKSSQTLGALPSLGSGSGRRSNLETETPSIAFPQTDSGISDQQNQSYESFSHSNSETEQIVGVDNYYATGYDGGYETIPSGSSVGYDGSSYGGNTWNGGGFEAMTGLPEAVVAMDSGARRGRRGRNQMPEIVEVKQDELMKNRPRVDQVKSTGIAFGPAYQPVTSSSKGKVSKLHKRKHQITALFMDMKHKESELTERRSRGLLTKAETQAKYGW | failed
